Target: T1, sfGFP-MinD^D40AΔ10 (E. coli MG1655, UniProt P0AEZ3 1-260, D40A)
T1 construct: MinD of E. coli MG1655 with the D40A mutation and deletion of the C-terminal 10 amino acids, made from pET15-sfGFP-minD; 55 kDa after removal of the 2 kDa His-Tag (so in the source); also called MinD mutant treated by thrombin; His-sfGFP-MinD^D40AΔ10 (before cleavage); not shown: His tag, N-terminal, cleaved; sfGFP, N-terminal, kept
T1 sequence (looked up): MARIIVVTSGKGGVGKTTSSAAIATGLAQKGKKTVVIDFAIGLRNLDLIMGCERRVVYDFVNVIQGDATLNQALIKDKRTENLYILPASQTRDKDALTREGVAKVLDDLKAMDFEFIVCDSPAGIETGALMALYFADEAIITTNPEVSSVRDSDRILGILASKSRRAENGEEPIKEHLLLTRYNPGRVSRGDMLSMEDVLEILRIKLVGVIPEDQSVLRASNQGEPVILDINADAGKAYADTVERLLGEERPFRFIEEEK
Assay: pull-down; His-tagged Min protein held on cOmplete His-Tag purification (Ni-NTA) resin; 9 µM MinE-mCherry-His, 3 µM His-sfGFP-MinD or 6 µM thrombin-treated MinD^D40AΔ10, with or without 3 µM BSA; RE buffer, 30 min, room temperature; washed with 20 mM imidazole, eluted with 250 mM imidazole; SDS-PAGE and CBB staining
Conditions: both partners purified

binding result: binds
B1: MinE-mCherry-His (natural protein, E. coli K12 MG1655, UniProt P0A734 1-88, looked up)
chain: MALLDFFLSRKKNTANIAKERLQIIVAERRRSDAEPHYLPQLRKDILEVICKYVQIDPEMVTVQLEQKDGDISILELNVTLPEAEELK
notes: MinE, gene amplified from the E. coli K12 MG1655 genome and cloned into pET29a with mCherry (pET29-minE-mCherry-His); The 6xHis-tag was attached at the C-terminal of mCherry by PCR; the mCherry gene came from the pET21b-RL027A plasmid (Addgene); source: E. coli BL21-CodonPlus(DE3) RIPL, purified (His-Tag purification resin, HiTrap Q HP); not shown: mCherry, C-terminal, kept; 6xHis, C-terminal, …

Reference: article PMC6667215, “Cell-sized confinement controls generation and stability of a protein wave for spatiotemporal regulation in cells” (eLife, 2019)
